Data set [1] has as its target T1, ceh-23 (ZK652.5) (Caenorhabditis elegans) (UniProt P34663).
T1 sequence: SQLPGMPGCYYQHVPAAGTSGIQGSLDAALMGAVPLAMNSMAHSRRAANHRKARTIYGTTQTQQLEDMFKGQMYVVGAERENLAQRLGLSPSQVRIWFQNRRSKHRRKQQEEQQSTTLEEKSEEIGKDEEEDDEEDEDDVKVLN

For data set [2], the target named is T2, ceh-90 (R03E1.4) (Caenorhabditis elegans) (UniProt Q69YW8).
T2 sequence: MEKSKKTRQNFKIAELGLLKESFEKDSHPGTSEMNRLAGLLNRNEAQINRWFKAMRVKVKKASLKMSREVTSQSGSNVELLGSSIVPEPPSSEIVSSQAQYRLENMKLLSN

Data set [3] addresses T3, ceh-18 (ZC64.3) (Caenorhabditis elegans) (UniProt P41934).
T3 sequence: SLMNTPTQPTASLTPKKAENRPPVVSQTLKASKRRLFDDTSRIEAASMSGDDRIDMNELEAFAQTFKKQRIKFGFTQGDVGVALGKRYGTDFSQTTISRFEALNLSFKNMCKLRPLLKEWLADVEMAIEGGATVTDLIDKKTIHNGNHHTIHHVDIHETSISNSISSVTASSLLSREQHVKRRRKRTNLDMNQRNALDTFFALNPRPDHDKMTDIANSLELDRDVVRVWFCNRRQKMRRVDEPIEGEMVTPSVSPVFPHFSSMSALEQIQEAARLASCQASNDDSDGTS

Data set [4] addresses T4, ceh-51 (Y80D3A.3) (Caenorhabditis elegans) (UniProt Q9U1R1).
T4 sequence: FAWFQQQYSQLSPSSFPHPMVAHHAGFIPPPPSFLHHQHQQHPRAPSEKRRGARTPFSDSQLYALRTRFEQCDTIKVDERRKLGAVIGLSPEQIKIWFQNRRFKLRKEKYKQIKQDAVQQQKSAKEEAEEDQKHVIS

Data set [5] deals with T5, C07E3.6 (C07E3.6) (Caenorhabditis elegans) (UniProt Q17792).
T5 sequence: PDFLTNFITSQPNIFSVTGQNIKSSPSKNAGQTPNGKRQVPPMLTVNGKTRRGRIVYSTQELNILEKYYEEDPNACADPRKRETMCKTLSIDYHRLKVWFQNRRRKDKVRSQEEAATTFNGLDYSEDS

Data set [6] deals with T6, eyg-1 (Y53C12C.1) (Caenorhabditis elegans) (UniProt O01996).
T6 sequence: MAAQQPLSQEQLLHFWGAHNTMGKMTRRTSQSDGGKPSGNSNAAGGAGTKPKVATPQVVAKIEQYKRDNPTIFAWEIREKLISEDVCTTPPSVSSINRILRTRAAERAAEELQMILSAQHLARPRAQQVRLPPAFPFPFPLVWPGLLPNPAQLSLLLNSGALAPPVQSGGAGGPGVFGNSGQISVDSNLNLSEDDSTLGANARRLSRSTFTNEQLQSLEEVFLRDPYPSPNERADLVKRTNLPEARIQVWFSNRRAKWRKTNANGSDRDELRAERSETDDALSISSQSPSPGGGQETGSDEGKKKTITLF

Data set [7] relates to ceh-53 (C09G12.1) (Caenorhabditis elegans).
The target in data set [8] is ceh-37 (C37E2.5) (Caenorhabditis elegans) (UniProt Q93356).
In data set [9] the target is ceh-36 (C37E2.4) (Caenorhabditis elegans) (UniProt Q93352).
Sequence of ceh-36 (C37E2.4) (Caenorhabditis elegans) (Q93352 6-165): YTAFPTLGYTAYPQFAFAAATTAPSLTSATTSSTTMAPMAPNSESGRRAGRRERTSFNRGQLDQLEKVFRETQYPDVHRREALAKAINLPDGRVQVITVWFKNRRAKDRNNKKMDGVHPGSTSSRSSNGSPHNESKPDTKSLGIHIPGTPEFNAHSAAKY

Sequence of ceh-53 (C09G12.1) (Caenorhabditis elegans) (chain, as listed by the source): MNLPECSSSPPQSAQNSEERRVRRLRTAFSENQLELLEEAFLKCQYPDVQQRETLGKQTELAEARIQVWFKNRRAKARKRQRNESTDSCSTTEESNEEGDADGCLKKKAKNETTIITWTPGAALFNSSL
Sequence of ceh-37 (C37E2.5) (Caenorhabditis elegans) (Q93356 1-148): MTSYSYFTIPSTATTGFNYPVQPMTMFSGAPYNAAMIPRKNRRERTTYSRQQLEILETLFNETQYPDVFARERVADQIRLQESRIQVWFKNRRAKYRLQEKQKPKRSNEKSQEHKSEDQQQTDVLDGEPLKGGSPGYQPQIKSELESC

For the sequence “TAATTAAA (double strand) [8-mer TAATTAAA]”, in data set [1], the binding signal (PBM E-score (-0.5 to 0.5)) was 0.493.
“ATTAAAAC (double strand) [8-mer ATTAAAAC]” returned a binding signal (PBM E-score (-0.5 to 0.5)) in [2] of 0.487.
Turning to “AATTATGC (double strand) [8-mer AATTATGC]”, the binding signal (PBM E-score (-0.5 to 0.5)) in [3] is 0.484.
In the case of “ATTAATTA (double strand) [8-mer ATTAATTA]”, the binding signal (PBM E-score (-0.5 to 0.5)) in data set [1] is 0.495; in [4], 0.474; in data set [5], 0.495.
Consider “CTAATTAA (double strand) [8-mer CTAATTAA]”, for which the binding signal (PBM E-score (-0.5 to 0.5)) in [1] stood at 0.498; in [5], 0.498; in data set [6], 0.489.
Consider “GGTAATTA (double strand) [8-mer GGTAATTA]”, for which the figures for the binding signal (PBM E-score (-0.5 to 0.5)) in [1] and in [5] were 0.494 and 0.497, respectively.
“TTATGCAA (double strand) [8-mer TTATGCAA]” had a binding signal (PBM E-score (-0.5 to 0.5)) in data set [3] of 0.476.
“CTAATTAG (double strand) [8-mer CTAATTAG]”: the binding signal (PBM E-score (-0.5 to 0.5)) in [1] stood at 0.495; in data set [5] it was 0.497; in [6], 0.473.
The sequence “GGTTTTAA (double strand) [8-mer GGTTTTAA]” registered a binding signal (PBM E-score (-0.5 to 0.5)) in [2] of 0.498.
In data set [2], “AGGTTTTA (double strand) [8-mer AGGTTTTA]” had a binding signal (PBM E-score (-0.5 to 0.5)) of 0.496.
Take “ATTAATAA (double strand) [8-mer ATTAATAA]”: in data set [4], the binding signal (PBM E-score (-0.5 to 0.5)) worked out at 0.474.
Consider “TTAATTAA (double strand) [8-mer TTAATTAA]”, for which the binding signal (PBM E-score (-0.5 to 0.5)) in data set [1] is 0.497; in [5] it was 0.496; in data set [6], 0.487.
As for “ATAATTAA (double strand) [8-mer ATAATTAA]”, the binding signal (PBM E-score (-0.5 to 0.5)) in data set [1] came to 0.493.
On to “TGCATAAA (double strand) [8-mer TGCATAAA]”, for which the binding signal (PBM E-score (-0.5 to 0.5)) in data set [3] came out at 0.476.
For the sequence “ATTAATTG (double strand) [8-mer ATTAATTG]”, the binding signal (PBM E-score (-0.5 to 0.5)) in data set [4] came out at 0.472; in data set [6], 0.478.
“ATAAAACC (double strand) [8-mer ATAAAACC]” yielded a binding signal (PBM E-score (-0.5 to 0.5)) in data set [2] of 0.495.
“ATTAAGTG (double strand) [8-mer ATTAAGTG]”: the binding signal (PBM E-score (-0.5 to 0.5)) in data set [4] stood at 0.472.
As for “GGTTTTTA (double strand) [8-mer GGTTTTTA]”, the binding signal (PBM E-score (-0.5 to 0.5)) in data set [2] turned out to be 0.485.
Consider “GATAATTA (double strand) [8-mer GATAATTA]”, for which the values for the binding signal (PBM E-score (-0.5 to 0.5)) in [1], in [5] and in data set [6] were 0.492, 0.497 and 0.48, respectively.
Sequence “ACTAAAAC (double strand) [8-mer ACTAAAAC]” registered a binding signal (PBM E-score (-0.5 to 0.5)) in data set [2] of 0.487.
“ATATGCAC (double strand) [8-mer ATATGCAC]” showed a binding signal (PBM E-score (-0.5 to 0.5)) in data set [3] of 0.477.
“AATATGCA (double strand) [8-mer AATATGCA]”: the binding signal (PBM E-score (-0.5 to 0.5)) in data set [3] turned out to be 0.482.
For the sequence “AGTTTTAG (double strand) [8-mer AGTTTTAG]”, the binding signal (PBM E-score (-0.5 to 0.5)) in [2] came out at 0.486.
For the sequence “CTTAATTA (double strand) [8-mer CTTAATTA]”, the figures for the binding signal (PBM E-score (-0.5 to 0.5)) in data set [1], in data set [5] and in data set [6] were 0.494, 0.497 and 0.482, respectively.
For “CCTAATTA (double strand) [8-mer CCTAATTA]”, the figures for the binding signal (PBM E-score (-0.5 to 0.5)) in data set [1] and in [5] were 0.495 and 0.496, respectively.
With “ATATGCAT (double strand) [8-mer ATATGCAT]”, the binding signal (PBM E-score (-0.5 to 0.5)) in data set [3] was 0.486.
Regarding “TATGCAAA (double strand) [8-mer TATGCAAA]”, in [3], the binding signal (PBM E-score (-0.5 to 0.5)) stood at 0.486.
Sequence “AGTTTTAA (double strand) [8-mer AGTTTTAA]” had a binding signal (PBM E-score (-0.5 to 0.5)) in [2] of 0.492.
Same read-out and setting: the figure for “GGGTTTAA (double strand) [8-mer GGGTTTAA]” is 0.487.
Sequence “ATATAATA (double strand) [8-mer ATATAATA]” showed a binding signal (PBM E-score (-0.5 to 0.5)) in data set [4] of 0.472.
Regarding “ATTAATAG (double strand) [8-mer ATTAATAG]”, the binding signal (PBM E-score (-0.5 to 0.5)) in [4] came to 0.478.
For the sequence “GTTAATTA (double strand) [8-mer GTTAATTA]”, the binding signal (PBM E-score (-0.5 to 0.5)) in data set [1] is 0.497; in data set [5], 0.498; in data set [6], 0.481.
Sequence “GTTAAAAC (double strand) [8-mer GTTAAAAC]” gave a binding signal (PBM E-score (-0.5 to 0.5)) in data set [2] of 0.492.
For the sequence “CATATGCA (double strand) [8-mer CATATGCA]”, the binding signal (PBM E-score (-0.5 to 0.5)) in [3] is 0.478.
“GTAATTAA (double strand) [8-mer GTAATTAA]”: the results for the binding signal (PBM E-score (-0.5 to 0.5)) in [1] and in [5] were 0.492 and 0.497, respectively.
On to “TAAAACCA (double strand) [8-mer TAAAACCA]”, for which, in data set [2], the binding signal (PBM E-score (-0.5 to 0.5)) stood at 0.488.
In [6], “ATCAATTA (double strand) [8-mer ATCAATTA]” registered a binding signal (PBM E-score (-0.5 to 0.5)) of 0.475.
For “GGGTTTTA (double strand) [8-mer GGGTTTTA]”, in [2], the binding signal (PBM E-score (-0.5 to 0.5)) stood at 0.498.
In [4], “GCTATTAA (double strand) [8-mer GCTATTAA]” gave a binding signal (PBM E-score (-0.5 to 0.5)) of 0.467.
With “CAATTAAC (double strand) [8-mer CAATTAAC]”, the binding signal (PBM E-score (-0.5 to 0.5)) in data set [5] came to 0.495; in [6], 0.476.
The sequence “CCAATTAA (double strand) [8-mer CCAATTAA]” had a binding signal (PBM E-score (-0.5 to 0.5)) in data set [6] of 0.479.
In turn, “GCAATTAA (double strand) [8-mer GCAATTAA]” displayed a binding signal (PBM E-score (-0.5 to 0.5)) in [4] of 0.473.
In the case of “GTAATTAC (double strand) [8-mer GTAATTAC]”, the values for the binding signal (PBM E-score (-0.5 to 0.5)) in data set [4] and in data set [6] were 0.478 and 0.482, respectively.
As for “ACTAATTA (double strand) [8-mer ACTAATTA]”, the binding signal (PBM E-score (-0.5 to 0.5)) in [1] was 0.495; in data set [5], 0.498; in [6], 0.477.
Regarding “GCACTTAA (double strand) [8-mer GCACTTAA]”, the binding signal (PBM E-score (-0.5 to 0.5)) in data set [4] amounted to 0.469.
Take “ATTAATGA (double strand) [8-mer ATTAATGA]”: the binding signal (PBM E-score (-0.5 to 0.5)) in [4] turned out to be 0.469.
For “GAATATTC (double strand) [8-mer GAATATTC]”, the binding signal (PBM E-score (-0.5 to 0.5)) in data set [3] turned out to be 0.494.
In the case of “TATTAATA (double strand) [8-mer TATTAATA]”, the binding signal (PBM E-score (-0.5 to 0.5)) in data set [4] stood at 0.483.
Take “ATTAATCC (double strand) [8-mer ATTAATCC]”: the values for the binding signal (PBM E-score (-0.5 to 0.5)) in data set [7], in [8] and in [9] were 0.495, 0.492 and 0.494, respectively.
Take “ATGAATAA (double strand) [8-mer ATGAATAA]”: in [3], the binding signal (PBM E-score (-0.5 to 0.5)) stood at 0.477.
“AAGTTTTA (double strand) [8-mer AAGTTTTA]” displayed a binding signal (PBM E-score (-0.5 to 0.5)) in [2] of 0.492.
The same measure, in the same setting: for “CTAAAACC (double strand) [8-mer CTAAAACC]” the value was 0.493.
In data set [4], “TAATTACA (double strand) [8-mer TAATTACA]” yielded a binding signal (PBM E-score (-0.5 to 0.5)) of 0.467.
Turning to “ATGCATAA (double strand) [8-mer ATGCATAA]”, the binding signal (PBM E-score (-0.5 to 0.5)) in [3] came out at 0.495.
On the same count and under the same terms, for “ATTATGCA (double strand) [8-mer ATTATGCA]” the value was 0.496; for “TATGCATA (double strand) [8-mer TATGCATA]”, 0.497.
For the sequence “ATGCGCAT (double strand) [8-mer ATGCGCAT]”, the binding signal (PBM E-score (-0.5 to 0.5)) in data set [6] was found to be 0.475.
“TCAATTAA (double strand) [8-mer TCAATTAA]”: the binding signal (PBM E-score (-0.5 to 0.5)) stood at 0.467 in [4] and 0.48 in [6].
In data set [2], “CTTAAAAC (double strand) [8-mer CTTAAAAC]” displayed a binding signal (PBM E-score (-0.5 to 0.5)) of 0.494.

The record behind these values is article PMC4434323.
